# Laboratory results from paper doi:10.1101/2024.02.12.579695.
# T1: DR2539 full length (Deinococcus radiodurans, UniProt Q9RRF3 1-232)
# T1 sequence: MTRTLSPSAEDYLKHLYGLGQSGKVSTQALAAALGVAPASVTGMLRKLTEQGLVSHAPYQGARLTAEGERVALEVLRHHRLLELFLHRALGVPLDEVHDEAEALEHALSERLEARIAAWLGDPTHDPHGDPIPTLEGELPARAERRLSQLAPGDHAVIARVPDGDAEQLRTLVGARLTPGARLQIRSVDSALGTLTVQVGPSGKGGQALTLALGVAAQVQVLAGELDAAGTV
# B1: dr1709p_wt (dsDNA)
# DNA 1: ATTTTAGTCGCGCCTAAAATA
# DNA 2: TATTTTAGGCGCGACTAAAAT
# Experiments:
# [1] = molecular target: DR2539 full length (Deinococcus radiodurans); test: SEC
# [2] = molecular target: DR2539 full length (Deinococcus radiodurans); test: SAXS
# [3] = molecular target: truncated DR2539 (DR2539tr, residues 4-142) (Deinococcus radiodurans); test: SAXS
# DR2539 full length = molecular target: T1, DR2539 full length; test: EMSA
molecule,measurement,setting,value
DR2539 full length (natural protein),stoichiometry N,[1],2
same,stoichiometry N,[2],2
"truncated DR2539 (DR2539tr, residues 4-142) (domain or fragment)",stoichiometry N,[3],2
B1,binding result,DR2539 full length,binds
